From paper PMC6981440 (International Journal of Molecular Sciences, 2019) come the findings set out here.

Data set [1] addresses mouse anti-GM1 IgG2b(κ) antibody GB2 (mouse). Description: high-speed atomic force microscopy; antibody at 10 μg/mL in phosphate-buffered saline, 3 min on a mica-supported DOPC bilayer with GM1 (rings at >25% GM1; 50% GM1 in Figure 4), unbound antibody washed off; room temperature.
Data set [2] deals with the molecule itself. Description: crystal structure; apo Fc of GB2; 16% PEG3350, 0.2 M lithium chloride, 0.1 M Bis-Tris pH 6.5, 20 °C; P2(1)2(1)2(1), three Fc dimers per asymmetric unit, 2.30 Å.

Molecule mouse anti-GM1 IgG2b(κ) antibody GB2 came in with a stoichiometry N in data set [1] of 6.

B1: Fc fragment of GB2 (mouse IgG2b-Fc, apo form) (domain or fragment)
chain: CPAPNLEGGPSVFIFPPNIKDVLMISLTPKVTCVVVDVSEDDPDVQISWFVNNVEVHTAQTQTHREDYNSTIRVVSTLPIQHQDWMSGKEFKCKVNNKDLPSPIERTISKIKGLVRAPQVYILPPPAEQLSRKDVSLTCLVVGFNPGDISVEWTSNGHTEENYKDTAPVLDSDGSYFIYSKLNMKTSKWEKTDSFSCNVRHEGLKNYYLKKTISRSPG
notes: Fc fragment of the mouse IgG2b heavy chain of GB2, cut by papain; Fc dimer; three Fc dimers per asymmetric unit in the crystal; also called apo Fc; source: papain digestion of GB2 from mouse hybridoma, purified (Affi-gel protein A column)
In the case of B1, the “stoichiometry N” value in data set [2] came out at 3.
